± gives the half width of the 95% confidence interval.
Assays:
[1] = folding stability dG unfold (combined trypsin and chymotrypsin); higher = more stable
In short: (§1)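 Designed mini-proteins (under 80 residues, no cysteine) in a PA-tagged cDNA display construct were digested with trypsin and chymotrypsin. Each protease was used at 11 concentrations (threefold dilutions) plus a no-protease condition, followed by sequencing. K50 was inferred by Bayesian fitting of sequencing counts, and unfolding free energy was derived against a sequence-predicted unfolded-state K50 and a shared folded-state K50, per protease or combined. Only designs with AlphaFold2 dimer inter-PAE above 15 were kept.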

[2] = folding stability dG unfold from trypsin proteolysis; higher = more stable
In short: as §1

[3] = folding stability dG unfold from chymotrypsin proteolysis; higher = more stable
In short: as §1

Sequence	folding stability dG unfold [1]	folding stability dG unfold [2]	folding stability dG unfold [3]
SAGYFIMVKFEFPDGGPQEFMIWIPPDENPEKLTKEEAKEVAKSIANSNQDQGGFEVKDVEIMPPDDMSAGG [r19_27_TrROS]	6.59 ± 0.628 kJ/mol	2.56 ± 0.418 kJ/mol	8.47 ± 0.368 kJ/mol
SAGFEFPPGQEIEFKVQYTSPMPNPDGGWGPVTETYEITIEIVPVPPIPFKDPAQAEELRQKGLPPDDLSAG [r5_624_TrROS]	5.14 ± 0.586 kJ/mol	2.28 ± 0.251 kJ/mol	6.01 ± 0.172 kJ/mol
SAGGMTVTVKVTEIKKIGDKYEITLKNPDGTPKTVTIDDPEVVKKITPDSEVTVTVNPDGSYTITLESAGGS [r16_2_JUSTAS]	16.1 ± 1.21 kJ/mol	15.6 ± 1.17 kJ/mol	14.5 ± 0.962 kJ/mol
SAGLSEIVKKLFPEEEIEIEVEERTLPGPPNIPVVEFDVRITFKDGRTFRARAIRYPDFVLIEVEPLEPSAG [r14_28_TrMRF]	15.1 ± 0.46 kJ/mol	13.6 ± 0.46 kJ/mol	15.7 ± 0.272 kJ/mol
SMYKVKVKLLITNPKTGEKLEVEVEATLEEAEKLAEELEKKYPELNWKVEIKEIEIYPIPKPVLVKPGEASA [r9_14_TrMRF]	14.5 ± 0.92 kJ/mol	10.3 ± 1.42 kJ/mol	14.7 ± 0.402 kJ/mol
SAGKIVIDKDNMKVYVTLPNGKKIELSLEELKKLLEELKKEGKPLTAEEIAEKLKKEFPGAEVEIVPVSAGG [r19_46_TrROS_Hall]	15.4 ± 0.347 kJ/mol	9.94 ± 0.36 kJ/mol	16.8 ± 0.268 kJ/mol
SAGKKTLIIRVKIRVRRKVDGKEEEVELELVIEVEAEEDEEEARRKAEELARKLAEEYNLEIEEVEIFPSAG [r5_497_TrROS_Hall]	17.8 ± 0.46 kJ/mol	17.5 ± 0.544 kJ/mol	18 ± 0.31 kJ/mol
SAGMTVEELRNLPPGYRVLEVKFDPETGKYTVVVERPDEDGVPHKVTIEVDGLEELEEFFKTGLTELKLSAG [r5_905_TrMRF]	5.66 ± 0.669 kJ/mol	7.25 ± 0.188 kJ/mol	3.75 ± 0.418 kJ/mol
SAGGSALLEALKKLAEELGLEVELEEVRVETETRTETRTLPDGRTETRTETEVRVEVKVTVRPKPASAGGSA [r15_561_TrROS_Hall]	11.3 ± 0.343 kJ/mol	10.8 ± 0.314 kJ/mol	11.4 ± 0.418 kJ/mol
SAGGSAGGSAGGGKVTAVVTFTGPDGSKVVLAFHPDGSVTVRYFDPNGELVGEKTFAGAGSAGGSAGGSAGG [r7_544_TrMRF]	17.9 ± 0.586 kJ/mol	13.4 ± 0.795 kJ/mol	19.1 ± 0.418 kJ/mol
SAGGSAGGKKKIIKIKNKDGEYLIKVKTKDGKTVEFKKFKSLEEALKALPKEKIEKIEIIPLKKSAGGSAGG [r6_307_TrROS_Hall]	8.6 ± 1.76 kJ/mol	6.87 ± 0.356 kJ/mol	10 ± 0.418 kJ/mol
SAGGSAATVEVTRLPGGRYVVRLRNPDTDEEIVVELPVDASTTPEDVLEAARALVAELEEEGYTIESAGGSA [r15_1022_TrMRF]	12.7 ± 0.243 kJ/mol	12.2 ± 0.293 kJ/mol	13.12 ± 0.1 kJ/mol
SAGGGASLNSIKISKIPGLNKYKITLPTSAAPGTEVTITINNPKGKETLTFTLPVKPLPGNTVVLLLSAGGS [r8_195_JUSTAS]	7.26 ± 0.276 kJ/mol	6.1 ± 0.188 kJ/mol	7.28 ± 0.247 kJ/mol
SAGGSAGGSAGKPVLTLTLRLEDGTLVRIEFDLETEELTVRVLDLETGEEKEFTFKLPAPSAGGSAGGSAGG [r11_931_TrROS_Hall]	16.3 ± 0.586 kJ/mol	14.7 ± 0.92 kJ/mol	17 ± 0.31 kJ/mol
SAGGSMYLIRITVRNKDGEEVLTIERRVRLEDGKSLEEVAEELRRALESLPNLEVVDVEVVPLEELSAGGSA [r2_192_TrROS_Hall]	16.7 ± 0.243 kJ/mol	18 ± 0.301 kJ/mol	15.89 ± 0.0795 kJ/mol
MLTLPDGRPAFVRARVVLPPGVRVTVVGDIPAEELERRLGRRVTPEDIVRAVVEAARRRGLTVEAVELDLRS [r1_338_TrMRF]	4.55 ± 0.142 kJ/mol	4.65 ± 0.0544 kJ/mol	4.27 ± 0.13 kJ/mol
SAKVKISIEFDKKTNKVTIKVKYKGDKEKEKEITLSLEELQKKLGKPLSLEEIIKLLKEKGIDEVEIYPSAG [r14_809_TrROS_Hall]	17 ± 0.628 kJ/mol	14.4 ± 0.586 kJ/mol	17.8 ± 0.389 kJ/mol
SAGGPGTREVEITIPADELREEHPNLTDEELVEEVMELARGIAQEQGYPIKKVDITHDKDGWVTIKLSAGGS [r8_368_TrROS]	1.35 ± 0.669 kJ/mol	1.6 ± 0.381 kJ/mol	0.637 ± 0.46 kJ/mol
SAGGSAGGDPRPVRVEVLRLEYDPPSGLLRALVRNPENDLLVFATLRIFPDPAGAELRVESVVFSAGGSAGG [r6_70_TrMRF]	10.4 ± 0.46 kJ/mol	5.83 ± 0.297 kJ/mol	11.9 ± 0.418 kJ/mol
SAGGSAGGSEEVVVVEVEGELVVVTKEETVTVVPAPPPPPLTAEQRALAKELEKLGLEVEIRDSAGGSAGGS [r12_172_TrROS_Hall]	-1.59 ± 1.55 kJ/mol	-0.804 ± 0.669 kJ/mol	-2.11 ± 0.46 kJ/mol
SAGGSAGGSARRDEVVERARERLLEEHPDLKPGETATVVVRDPETDEVYVFRFDGDGRVYGSAGGSAGGSAG [r3_441_TrMRF]	5.47 ± 0.669 kJ/mol	2.47 ± 0.377 kJ/mol	6.67 ± 0.46 kJ/mol

Sequence	folding stability dG unfold [1]	folding stability dG unfold [2]	folding stability dG unfold [3]
SAGGSPMTITMWFPVDSVEQAKDLINPNFPDYDVKVDNIKPENGWVRVKYTWPNGKPQEREIPIKKSAGGSA [r2_201_TrROS]	0.616 ± 1.63 kJ/mol	-0.947 ± 1.38 kJ/mol	1.36 ± 1.59 kJ/mol
SAGGMKTVTIEYWGSLPDAVVLAKKAVEEAAKNKGKTVVTLYVWEGEPDENGVPRWKPLGKYVFVVDASAGG [r13_974_TrMRF]	13.3 ± 0.418 kJ/mol	10.2 ± 0.385 kJ/mol	14.55 ± 0.142 kJ/mol
SGGMEKTENGNVRPVPLPTTVVKETPPEVSPEEAKERVEKELKEKGYKNVKVTTSYDPSTNLVTITVTVESA [r9_1124_JUSTAS]	2.36 ± 0.377 kJ/mol	1.87 ± 0.297 kJ/mol	2.61 ± 0.318 kJ/mol
SSLTVRLELEVTFEDGLRVRVEVEAELREVDGKLELRVRVRVEVRPLPPPPPPPPPPRLSDEQLEELRKRSA [r9_965_TrROS_Hall]	7.94 ± 0.795 kJ/mol	3.29 ± 0.795 kJ/mol	9.78 ± 0.385 kJ/mol
SAGGSAPSSELLEEEFETEDKSNNTTIKIYKVPGTGDYLIETTTPSGKKTKLTLGPLSESEAKGLISAGGSA [r15_295_JUSTAS]	1.34 ± 0.247 kJ/mol	0.407 ± 0.0962 kJ/mol	1.34 ± 0.406 kJ/mol
SAGGSKPTVTLELYIEVPEEELSEEEIKKLLEELAKELNLEVEVTVEVEEKDGKLIVKVTVTIKKPSAGGSA [r2_172_TrROS_Hall]	9.41 ± 1.05 kJ/mol	8.99 ± 0.795 kJ/mol	9.52 ± 0.586 kJ/mol
SAGGSAGGSAGPPKPIWFRVKEVEVNPDNGTLEIKFENGQTITIPPENIENLPPGDWIRISAGGSAGGSAGG [r11_124_TrROS]	5.56 ± 0.243 kJ/mol	3.51 ± 0.121 kJ/mol	6.41 ± 0.255 kJ/mol
SAGGMVIKVTDAEEAIERVIELVKSLGPEAVIKEITVTNTGTVVKVEPGKKGTVSPDSTITVNIEKGSAGGS [r16_267_JUSTAS]	2.77 ± 0.586 kJ/mol	-0.163 ± 0.276 kJ/mol	3.92 ± 0.314 kJ/mol
SAGGSAGGSAKTLTLTTPNGDKVEVKLYELPDDFVLAEIKVLATGEKFYALLTKDGTVYLASAGGSAGGSAG [r3_15_TrMRF]	12.8 ± 0.544 kJ/mol	10.3 ± 0.351 kJ/mol	14.6 ± 0.628 kJ/mol
SAGGWYERIKEWAKDKGLKVDIEPTSFDPPNGWMPFEIEFPNGKKIDITFPDSPDQMLWMIRNMIKNSAGGS [r16_153_TrROS]	8.58 ± 0.628 kJ/mol	6.8 ± 0.238 kJ/mol	9.04 ± 0.377 kJ/mol
SAGGSAGGSAGPTYKIKIYFEDTGVEAEVEINEDGSLTITVPKELLPPGAKVKVEIVKVPSAGGSAGGSAGG [r17_392_TrROS_Hall]	6.55 ± 1.09 kJ/mol	5.35 ± 0.238 kJ/mol	6.95 ± 0.41 kJ/mol
SAGFVPGKLKAVDPNGNEIDVIEIEELPNGKVIAKGKNKTNGFPYIATYDPVSGKVYIILPNGKVIEIGSAG [r5_809_TrMRF]	6.48 ± 0.544 kJ/mol	3.63 ± 0.31 kJ/mol	7.6 ± 0.502 kJ/mol
SAGGSAGGSAWMYRIKIEIYSNGKKHKYEFWIPEDNIDEVADQLPPGYKIKITDIEPWEPNSAGGSAGGSAG [r3_195_TrROS]	10.3 ± 0.586 kJ/mol	7.6 ± 0.092 kJ/mol	11.4 ± 0.205 kJ/mol
SAGGSAGGSAIKPGEKIKILVLVKDENGKEYLVKMEIEKLPDGKIKIKKVEIMSLEELKKLSAGGSAGGSAG [r3_212_TrROS_Hall]	9.19 ± 0.544 kJ/mol	7.71 ± 0.18 kJ/mol	9.96 ± 0.121 kJ/mol
SAGGSAGGSAGFFIRIEPPNGEKVHFPMPPNQLPELAEEFPGLKIDDIDEGNGWIWVEVPSAGGSAGGSAGG [r17_22_TrROS]	-1.1 ± 1.46 kJ/mol	-0.311 ± 0.962 kJ/mol	-1.9 ± 1.97 kJ/mol
SAGGSAGGSASIEITVKTKEEAKALAEALAKAGLVEVETLPDGSVKITVKPVKVEEVLKPPESAGGSAGGSA [r18_126_TrROS_Hall]	9.06 ± 1.21 kJ/mol	6.95 ± 0.402 kJ/mol	10.9 ± 0.92 kJ/mol
SASMSPEELIEIEIELKRGNRNFTLKIKIPVGLSEEEIEEAIEKAKKELEEKVKKLEEEPPLNPENNLISAG [r14_70_JUSTAS]	13 ± 0.502 kJ/mol	9.76 ± 0.711 kJ/mol	14.4 ± 0.251 kJ/mol
SAGGSAGGSAGGVKKGDKVTVLRVRLELKIKVEKTEDGSLKLTAELKLEISLVTVTAPDSAGGSAGGSAGGS [r10_297_TrROS_Hall]	21.2 ± 0.879 kJ/mol	14.8 ± 0.586 kJ/mol	21.8 ± 0.628 kJ/mol
SAGMPPVKVEIEVYPVRVEGELLYIAKIVRPDGSVLVIAFKPEELIEAIKKEFPDIEEIKFSPFETPPESAG [r5_25_TrMRF]	14.5 ± 0.226 kJ/mol	13.8 ± 0.397 kJ/mol	14.98 ± 0.092 kJ/mol
SAGGSAGGSSLTVTYDPSTGTLTITVPEDQTSVKIKYGDKTYTVPLPPGQTFTVPANTFTLESSAGGSAGGS [r20_26_TrMRF]	5.41 ± 0.46 kJ/mol	3.12 ± 0.297 kJ/mol	6.44 ± 0.335 kJ/mol
SAGGSAGGSSSVVSTLEETPDSVVEKVETPDPIIVERVPLPDGTVEVRVFKPDGTPISISTLGSAGGSAGGS [r12_1061_JUSTAS]	2.12 ± 0.502 kJ/mol	4.14 ± 0.151 kJ/mol	0.165 ± 0.753 kJ/mol

Reference: the supplement of paper PMC12764529
